Data published in patent publication US11306156.

Experiments:
[1] = target: tissue factor (TF) antigen (UniProt P13726); assay: SPR, His-captured Fab, TF as analyte, 1:1 fit
[2] = target: tissue factor (TF) antigen (UniProt P13726); assay: SPR, His-captured Fab, TF as analyte; against wild-type D3H44 Fab
[3] = target: tissue factor (TF) antigen (UniProt P13726); assay: SPR (ProteOn XPR36), Fab captured on anti-penta-His surface, TF as analyte, 1:1 fit
[4] = target: tissue factor (TF) antigen (UniProt P13726); assay: SPR (ProteOn XPR36), Fab captured on anti-penta-His surface, TF as analyte; reference is the wild-type D3H44 Fab
[5] = target: tissue factor (TF) antigen (UniProt P13726); assay: SPR (ProteOn XPR36), His-tagged Fab captured on anti-penta His, TF as analyte; against wild-type D3H44 Fab
[6] = target: tissue factor (TF) antigen (UniProt P13726); assay: SPR (ProteOn XPR36), His-tagged Fab captured on anti-penta His, TF as analyte, 1:1 fit

Chain of tissue factor (TF) antigen (P13726 33-251 limits assumed): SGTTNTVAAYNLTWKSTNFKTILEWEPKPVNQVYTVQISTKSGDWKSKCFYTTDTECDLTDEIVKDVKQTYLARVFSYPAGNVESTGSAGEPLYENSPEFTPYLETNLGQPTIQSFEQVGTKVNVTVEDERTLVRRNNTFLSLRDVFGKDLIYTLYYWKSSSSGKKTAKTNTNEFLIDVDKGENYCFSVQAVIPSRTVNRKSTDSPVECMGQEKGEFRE

Kd [1]	Change in median values of KD compared to wild type (-(log(KD design)-log(KD wt))) [2]	Kd [3]	Change in median values of KD of h1l1 Fab heterodimer compared to wild type (-(log(KD design)-log(KD wt))) [4]	Substance	further results
170 pM	-0.02 log	–	–	D3H44 Fab heterodimer H1L1 of LCCA Set # 9062 and 9063 (H1 A139W_S188L; L1 F116A_L135V)	–
–	–	220 pM	-0.15	D3H44 Fab heterodimer H1L1 of LCCA set 9181 (H1 L124E_L143D_K145M; L1 Q124K_V133G_S176R_T178K)	–
–	–	130 pM	0.09	D3H44 Fab heterodimer H1L1 of LCCA set 9188 (H1 L124E_L143D_K145M; L1 Q124K_V133G_S176R_T178R)	–
–	–	160 pM	-0.01	D3H44 Fab heterodimer H1L1 of LCCA set 9361 (H1 L124R_D146N_Q179K; L1 V133G_S176D_T178E_T180E)	–
–	–	170 pM	-0.04	D3H44 Fab heterodimer H1L1 of LCCA sets 9536 and 9526 (H1 L124R_S186R; L1 V133G_S176D_T178D_T180E)	–

Continued, substance first:

Substance	Kd [1]	Change in median values of KD compared to wild type (-(log(KD design)-log(KD wt))) [2]	Kd [3]	Change in median values of KD of h1l1 Fab heterodimer compared to wild type (-(log(KD design)-log(KD wt))) [4]	further results
D3H44 Fab heterodimer H1L1 of LCCA Set # 9052, 9051 and 9050 (H1 A139G_F174V_V190A; L1 S131T_L135F_S176F_T178F)	140 pM	0.06 log	–	–	–
D3H44 Fab heterodimer H1L1 of LCCA Set # 9071 (H1 F174V; L1 S131T_S176F_T178F)	210 pM	-0.12 log	–	–	–
D3H44 Fab heterodimer H1L1 of LCCA Set # 9099 (H1 L124A_Q179K; L1 Q124E_V133W_S176T_T178L_T180E)	190 pM	-0.09 log	–	–	–
D3H44 Fab heterodimer H1L1 of LCCA Set # 9731 (H1 L143K; L1 Q124E_V133D)	280 pM	-0.26 log	–	–	–
D3H44 Fab heterodimer H1L1 of LCCA Set # 9732 and 9733 (H1 L143K; L1 Q124E_V133D_S176L)	280 pM	-0.25 log	–	–	–
D3H44 Fab heterodimer H1L1 of LCCA set 9226 (H1 L124E_L143D_K145T; L1 Q124K_V133G_S176R_T178R)	–	–	160 pM	-0.02	–
D3H44 Fab heterodimer H1L1 of LCCA sets 9257 and 9259 (H1 L124E_L143E_K145M; L1 Q124K_V133G_S176R_T178K)	–	–	240 pM	-0.19	–
D3H44 Fab heterodimer H1L1 of LCCA sets 9523 and 9524 (H1 L124R_S186R; L1 V133G_S176D_T178D)	–	–	200 pM	-0.1	–
D3H44 Fab heterodimer, H1 D146G_H172R_Q179K / L1 Q38E_Q124E_Q160E_T180E (H1L1 Fab of LCCA Set # 9064)	–	–	–	–	Change in median values of KD of h1|1 Fab heterodimer compared to wild type (-(log(KD design)-log(KD wt))) [5]: -0.05; Kd [6]: 170 pM
D3H44 Fab heterodimer, H1 D146G_Q179K / L1 Q38E_Q124E_Q160E_T180E (H1L1 Fab of LCCA Set # 9065)	–	–	–	–	Change in median values of KD of h1|1 Fab heterodimer compared to wild type (-(log(KD design)-log(KD wt))) [5]: -0.05; Kd [6]: 180 pM
D3H44 Fab heterodimer, H1 H172R_S186R / L1 Q38E_Q124E_Q160E_T180E (H1L1 Fab of LCCA Set # 9075)	–	–	–	–	Change in median values of KD of h1|1 Fab heterodimer compared to wild type (-(log(KD design)-log(KD wt))) [5]: -0.03; Kd [6]: 170 pM
D3H44 Fab heterodimer, H1 L124E_L143D_K145M / L1 Q124K_V133G_Q160K_S176R (H1L1 Fab of LCCA Set # 9170, 9171 and 9172)	–	–	–	–	Change in median values of KD of h1|1 Fab heterodimer compared to wild type (-(log(KD design)-log(KD wt))) [5]: -0.24; Kd [6]: 270 pM
D3H44 Fab heterodimer, H1 L124E_L143E_K145M / L1 Q124K_V133G_Q160K_S176R (H1L1 Fab of LCCA Set # 9248 and 9249)	–	–	–	–	Change in median values of KD of h1|1 Fab heterodimer compared to wild type (-(log(KD design)-log(KD wt))) [5]: -0.26; Kd [6]: 280 pM
